Assay results taken from patent publication US20140179593A1 (published 2014).
Positions of bridges follow the written chain, without caps; N, C: chain ends. Non-standard residues stand in square brackets, D forms with d. *: point of attachment. S5 = C=CCCC[C@](C)(N)C(=O)O; Nle = CCCC[C@H](N)C(=O)O; For = O=C*

Tests used:
[1] = biological target: T1, hDcn5^P (PONY domain of human DCUN1D5) (Homo sapiens, UniProt Q9BTE7 47-237); assay: ITC, peptide titrated into Dcn PONY domain
T1 sequence: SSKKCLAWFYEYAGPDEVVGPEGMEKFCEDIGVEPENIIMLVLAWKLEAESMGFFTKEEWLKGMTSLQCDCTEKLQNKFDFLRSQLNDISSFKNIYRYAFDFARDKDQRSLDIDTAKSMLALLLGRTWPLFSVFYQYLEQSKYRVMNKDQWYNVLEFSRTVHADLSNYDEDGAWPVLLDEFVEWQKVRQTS
Procedure: (§1) Protein samples were buffer matched by desalting over a NAP-5 column (GE Healthcare) into 50 mM Hepes, 125 mM NaCl, 1 mM BME, pH 7.0 (ITC buffer). Peptides were dissolved by weight to a final concentration of 10 mM in ITC buffer and diluted further in ITC buffer as required for the experiments. […] The peptide ligands (4 mM) were constantly injected (1.5 μl). The interval time between each injection was 3 minutes and the duration of each injection was 3 seconds. […] Peptide ligands (250 μM) were constantly injected (2.5 μl). The interval time between each injection was three minutes and the duration of each injection was 5 seconds. […] The interval time between each injection was 3 minutes and the duration of each injection was 5 seconds. Obtained spectra were evaluated using Origin (V 7.0) to determine heats of binding and Kd values.

[2] = biological target: T2, hDcn4^P (PONY domain of human DCUN1D4) (Homo sapiens, UniProt Q92564 102-292); assay: ITC, peptide titrated into Dcn PONY domain
T2 sequence: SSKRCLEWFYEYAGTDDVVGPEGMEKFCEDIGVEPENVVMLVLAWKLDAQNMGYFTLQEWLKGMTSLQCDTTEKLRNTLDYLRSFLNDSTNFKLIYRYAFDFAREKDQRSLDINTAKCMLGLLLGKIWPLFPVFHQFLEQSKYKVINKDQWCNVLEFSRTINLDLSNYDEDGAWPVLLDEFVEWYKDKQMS
Procedure: as §1

[3] = biological target: T3, hDcn1^P (potentiating neddylation / PONY domain of human Dcn1, DCUN1D1) (Homo sapiens, UniProt Q96GG9 62-259); assay: ITC, peptide titrated into Dcn PONY domain
T3 construct: also called DCUN1D1^P; SCCRO PONY domain
T3 sequence (Q96GG9 62-259): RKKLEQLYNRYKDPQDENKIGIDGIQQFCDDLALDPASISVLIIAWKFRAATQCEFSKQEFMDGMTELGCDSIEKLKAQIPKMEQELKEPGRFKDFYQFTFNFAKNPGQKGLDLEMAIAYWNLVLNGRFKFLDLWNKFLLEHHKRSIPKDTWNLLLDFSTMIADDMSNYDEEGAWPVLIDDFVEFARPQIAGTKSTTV
Procedure: as §1

[4] = biological target: hDcn2^P (PONY domain of human DCUN1D2) (Homo sapiens, UniProt Q6PH85 62-259); assay: ITC, peptide titrated into Dcn PONY domain
Sequence of hDcn2^P (PONY domain of human DCUN1D2) (Q6PH85 62-259 limits assumed): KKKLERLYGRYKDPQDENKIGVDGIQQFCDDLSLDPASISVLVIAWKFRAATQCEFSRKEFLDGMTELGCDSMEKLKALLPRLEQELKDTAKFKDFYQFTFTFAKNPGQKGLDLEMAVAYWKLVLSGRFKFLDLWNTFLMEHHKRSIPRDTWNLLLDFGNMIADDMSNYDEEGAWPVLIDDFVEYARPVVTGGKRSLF
Procedure: as §1

[5] = biological target: T4, hDcn3^P (PONY domain of human DCUN1D3) (Homo sapiens, UniProt Q8IWE4 86-304); assay: ITC, peptide titrated into Dcn PONY domain
T4 sequence: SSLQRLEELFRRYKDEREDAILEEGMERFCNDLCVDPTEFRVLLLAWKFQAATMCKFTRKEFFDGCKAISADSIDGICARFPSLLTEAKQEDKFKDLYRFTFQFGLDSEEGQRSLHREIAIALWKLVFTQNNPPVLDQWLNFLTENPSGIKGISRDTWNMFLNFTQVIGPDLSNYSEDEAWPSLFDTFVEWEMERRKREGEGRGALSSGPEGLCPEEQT
Procedure: as §1

[6] = biological target: T5, yDcn1^P (potentiating neddylation (PONY) domain of S. cerevisiae Dcn1) (Saccharomyces cerevisiae, UniProt Q12395 70-269); assay: ITC, peptide titrated into Dcn1^P; against the unacetylated peptide
T5 construct: NEDD8 co-E3; Expressed in E. coli
T5 sequence: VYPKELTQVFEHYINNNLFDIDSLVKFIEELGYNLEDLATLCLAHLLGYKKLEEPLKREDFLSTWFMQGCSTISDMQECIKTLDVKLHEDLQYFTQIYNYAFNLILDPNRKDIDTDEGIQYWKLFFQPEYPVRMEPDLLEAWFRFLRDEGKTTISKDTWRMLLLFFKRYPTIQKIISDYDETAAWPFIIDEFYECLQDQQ
Procedure: (§2) To gain insights into mechanistic roles of Ubc12 N-terminal acetylation, isothermal titration calorimetry (ITC) was used to quantify interactions with peptides corresponding to the N-termini of yeast or human Ubc12.
as §1

[7] = biological target: T6, hDcn1^P (residues 62 to the C-terminal residue 259 of hDcn1, aka SCCRO or DCUN1D1) (Homo sapiens, UniProt Q96GG9 62-259); assay: as above
T6 construct: Expressed as a GST fusion in E. coli; GST released by TEV protease; also called DCUN1D1^P; PONY domain of hDcn1
T6 sequence (Q96GG9 62-259): as the sequence (Q96GG9 62-259) above
Procedure: as §2, §1

[8] = biological target: T5, yDcn1^P (potentiating neddylation …); assay: ITC; against Acetyl-yUbc12^1-24
Procedure: as §1

[9] = biological target: T7, yDcn1^P (potentiating neddylation / PONY domain of Saccharomyces cerevisiae Dcn1) (Saccharomyces cerevisiae, UniProt Q12395 70-269); assay: ITC, peptide titrated into yDcn1^P
T7 construct: NEDD8 co-E3; Expressed in E. coli
T7 sequence: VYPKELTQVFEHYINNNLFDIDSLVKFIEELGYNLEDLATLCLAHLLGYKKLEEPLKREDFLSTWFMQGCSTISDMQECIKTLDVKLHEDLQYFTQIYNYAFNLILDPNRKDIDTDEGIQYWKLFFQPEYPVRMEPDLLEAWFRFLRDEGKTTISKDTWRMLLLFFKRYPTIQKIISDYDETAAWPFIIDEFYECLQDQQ
Procedure: (§3) The formylated peptides lack the methyl portion of an acetyl, but retain the amide and are uncharged.
as §1

[10] = biological target: T8, hDcn1^P (PONY domain of human Dcn1 / DCUN1D1 / SCCRO, residues 62 to 259) (Homo sapiens, UniProt Q96GG9 62-259); assay: ITC, peptide titrated into hDcn1^P
T8 construct: NEDD8 co-E3; Expressed as a GST fusion in E. coli; GST was removed with TEV protease; also called DCUN1D1^P
T8 sequence (Q96GG9 62-259): as the sequence (Q96GG9 62-259) above
Procedure: as §3, §1

[11] = biological target: T6, hDcn1^P (residues 62 to the C-terminal …); assay: ITC; against Acetyl-hUbc12^1-26
Procedure: as §3, §1

[12] = biological target: T6, hDcn1^P (residues 62 to the C-terminal …); assay: crystal structure
Procedure: The crystals grew as multiple clusters. Single crystals of the complex were obtained by streak-seeding into 17% PEG1500, 0.1 M MIB pH 4.0. The crystals were soaked in step gradients for 1-5 minutes, with sequential soaks containing well solution supplemented with 10%, 20%, and 30% ethylene glycol prior to flash-freezing in liquid nitrogen. Reflection data were collected at beamline 8.2.2 at the Advanced Light Source.

[13] = biological target: T2, hDcn4^P (PONY domain of human DCUN1D4); assay: ITC, two values in the cell, second value
Procedure: as §1

[14] = biological target: T2, hDcn4^P (PONY domain of human DCUN1D4); assay: ITC, two values in the cell, first value
Procedure: as §1

B1: yUbc12^Ac1-12 (NorLeu) 6, 10 (peptide)
peptide: Ac-[Nle]LKLR[S5]LQK[S5]KQ-NH2
modifications: staple 6-10
SMILES: CCCC[C@H](NC(C)=O)C(=O)N[C@@H](CC(C)C)C(=O)N[C@@H](CCCCN)C(=O)N[C@@H](CC(C)C)C(=O)N[C@@H](CCCNC(=N)N)C(=O)N[C@@]1(C)CCCC=CCCC[C@@](C)(C(=O)N[C@@H](CCCCN)C(=O)N[C@@H](CCC(N)=O)C(N)=O)NC(=O)[C@H](CCCCN)NC(=O)[C@H](CCC(N)=O)NC(=O)[C@H](CC(C)C)NC1=O
Kd [1]: 4.78 µM
Kd [2]: 4.3 µM
Kd [3]: 68 nM
Kd [4]: 75 nM
Kd [5]: 1.76 µM

B2: Acetyl-yUbc12^1-24 (peptide)
peptide: Ac-MLKLRQLQKKKQKENENSSSIQPN-NH2
notes: Synthetic peptide; also called yUbc12Ac1-24; N-terminally acetylated S. cerevisiae Ubc12^1-24
increase in affinity by N-terminal acetylation [6]: ~100 fold

B3: Acetyl-hUbc12^1-26 (peptide)
peptide: Ac-MIKLFSLKQQKKEEESAGGTKGSSKK-NH2
notes: Synthetic peptide; also called hUbc12Ac1-26
increase in affinity by N-terminal acetylation [7]: ~100 fold

B4: Formyl-yUbc12^1-24 (peptide)
peptide: For-MLKLRQLQKKKQKENENSSSIQPN-NH2
SMILES: CC[C@H](C)[C@H](NC(=O)[C@H](CO)NC(=O)[C@H](CO)NC(=O)[C@H](CO)NC(=O)[C@H](CC(N)=O)NC(=O)[C@H](CCC(=O)O)NC(=O)[C@H](CC(N)=O)NC(=O)[C@H](CCC(=O)O)NC(=O)[C@H](CCCCN)NC(=O)[C@H](CCC(N)=O)NC(=O)[C@H](CCCCN)NC(=O)[C@H](CCCCN)NC(=O)[C@H](CCCCN)NC(=O)[C@H](CCC(N)=O)NC(=O)[C@H](CC(C)C)NC(=O)[C@H](CCC(N)=O)NC(=O)[C@H](CCCNC(=N)N)NC(=O)[C@H](CC(C)C)NC(=O)[C@H](CCCCN)NC(=O)[C@H](CC(C)C)NC(=O)[C@H](CCSC)NC=O)C(=O)N[C@@H](CCC(N)=O)C(=O)N1CCC[C@H]1C(=O)N[C@@H](CC(N)=O)C(N)=O
notes: Synthetic peptide; also called N-terminally formylated yeast Ubc12 peptide
fold change of Kd against the acetylated peptide [8]: ~17 fold

B5: Formyl-yUbc12^1-24 peptide (peptide)
peptide: For-MLKLRQLQKKKQKENENSSSIQPN-NH2
SMILES: CC[C@H](C)[C@H](NC(=O)[C@H](CO)NC(=O)[C@H](CO)NC(=O)[C@H](CO)NC(=O)[C@H](CC(N)=O)NC(=O)[C@H](CCC(=O)O)NC(=O)[C@H](CC(N)=O)NC(=O)[C@H](CCC(=O)O)NC(=O)[C@H](CCCCN)NC(=O)[C@H](CCC(N)=O)NC(=O)[C@H](CCCCN)NC(=O)[C@H](CCCCN)NC(=O)[C@H](CCCCN)NC(=O)[C@H](CCC(N)=O)NC(=O)[C@H](CC(C)C)NC(=O)[C@H](CCC(N)=O)NC(=O)[C@H](CCCNC(=N)N)NC(=O)[C@H](CC(C)C)NC(=O)[C@H](CCCCN)NC(=O)[C@H](CC(C)C)NC(=O)[C@H](CCSC)NC=O)C(=O)N[C@@H](CCC(N)=O)C(=O)N1CCC[C@H]1C(=O)N[C@@H](CC(N)=O)C(N)=O
notes: Synthetic peptide
Kd [9]: 7.46 µM
ΔH [9]: 2820 cal/mol
ΔS [9]: 33.4 cal/mol/deg

B6: Formyl-hUbc12^1-26 peptide (peptide)
peptide: For-MIKLFSLKQQKKEEESAGGTKGSSKK-NH2
SMILES: CC[C@H](C)[C@H](NC(=O)[C@H](CCSC)NC=O)C(=O)N[C@@H](CCCCN)C(=O)N[C@@H](CC(C)C)C(=O)N[C@@H](Cc1ccccc1)C(=O)N[C@@H](CO)C(=O)N[C@@H](CC(C)C)C(=O)N[C@@H](CCCCN)C(=O)N[C@@H](CCC(N)=O)C(=O)N[C@@H](CCC(N)=O)C(=O)N[C@@H](CCCCN)C(=O)N[C@@H](CCCCN)C(=O)N[C@@H](CCC(=O)O)C(=O)N[C@@H](CCC(=O)O)C(=O)N[C@@H](CCC(=O)O)C(=O)N[C@@H](CO)C(=O)N[C@@H](C)C(=O)NCC(=O)NCC(=O)N[C@H](C(=O)N[C@@H](CCCCN)C(=O)NCC(=O)N[C@@H](CO)C(=O)N[C@@H](CO)C(=O)N[C@@H](CCCCN)C(=O)N[C@@H](CCCCN)C(N)=O)[C@@H](C)O
notes: Synthetic peptide; also called hUbc12^Formyl-1-26
Kd [10]: 9.71 µM
ΔH [10]: -4890 cal/mol
ΔS [10]: 5.79 cal/mol/deg

B7: Formyl-hUbc12^1-26 (peptide)
peptide: For-MIKLFSLKQQKKEEESAGGTKGSSKK-NH2
SMILES: CC[C@H](C)[C@H](NC(=O)[C@H](CCSC)NC=O)C(=O)N[C@@H](CCCCN)C(=O)N[C@@H](CC(C)C)C(=O)N[C@@H](Cc1ccccc1)C(=O)N[C@@H](CO)C(=O)N[C@@H](CC(C)C)C(=O)N[C@@H](CCCCN)C(=O)N[C@@H](CCC(N)=O)C(=O)N[C@@H](CCC(N)=O)C(=O)N[C@@H](CCCCN)C(=O)N[C@@H](CCCCN)C(=O)N[C@@H](CCC(=O)O)C(=O)N[C@@H](CCC(=O)O)C(=O)N[C@@H](CCC(=O)O)C(=O)N[C@@H](CO)C(=O)N[C@@H](C)C(=O)NCC(=O)NCC(=O)N[C@H](C(=O)N[C@@H](CCCCN)C(=O)NCC(=O)N[C@@H](CO)C(=O)N[C@@H](CO)C(=O)N[C@@H](CCCCN)C(=O)N[C@@H](CCCCN)C(N)=O)[C@@H](C)O
notes: Synthetic peptide; also called N-terminally formylated human Ubc12 peptide; hUbc12^Formyl-1-26
fold change of Kd against the acetylated peptide [11]: ~9 fold

B8: hUbc12^Ac1-26 (peptide)
peptide: Ac-MIKLFSLKQQKKEEESAGGTKGSSKK-NH2
notes: Synthetic peptide of the N-terminus of human Ubc12; also called Acetyl-hUbc12^1-26
Kd [1]: 8.6 µM
Kd [2]: 10 µM
Kd [3]: 1500 nM
Kd [4]: 735 nM
Kd [5]: 10.8 µM

B9: Acetyl-hUbc12^1-15 (peptide)
peptide: Ac-MIKLFSLKQQKKEEE-NH2
notes: Peptide of the hCul1^WHB-hDcn1^P-Acetyl-hUbc12^1-15 crystal structure; also called N-terminally acetylated human Ubc12^1-15
binding result [12]: binds

B10: yUbc12^Ac1-24 (peptide)
peptide: Ac-MLKLRQLQKKKQKENENSSSIQPN-NH2
notes: Synthetic peptide of the N-terminus of yeast Ubc12; also called Acetyl-yUbc12^1-24
Kd [1]: 2.4 µM
Kd [3]: 311 nM
Kd [4]: 204 nM
Kd [5]: 3.4 µM
Kd [13]: 13 µM
Kd [14]: 1200 nM
